Test results as given in publication PMC5125011, “Soluble Siglec-5 associates to PSGL-1 and displays anti-inflammatory activity” (Scientific Reports, 2016).

T1: human soluble recombinant PSGL1 fused to human Fc (human, UniProt Q14242 18-320)
T1 construct: P-selectin glycoprotein ligand-1 (PSGL1), human, soluble ectodomain; Sialylated glycoprotein; also called sPSGL1/Fc; soluble PSGL1/Fc; source: bought: R&D Systems (cat# 3345-PS)
T1 sequence (looked up): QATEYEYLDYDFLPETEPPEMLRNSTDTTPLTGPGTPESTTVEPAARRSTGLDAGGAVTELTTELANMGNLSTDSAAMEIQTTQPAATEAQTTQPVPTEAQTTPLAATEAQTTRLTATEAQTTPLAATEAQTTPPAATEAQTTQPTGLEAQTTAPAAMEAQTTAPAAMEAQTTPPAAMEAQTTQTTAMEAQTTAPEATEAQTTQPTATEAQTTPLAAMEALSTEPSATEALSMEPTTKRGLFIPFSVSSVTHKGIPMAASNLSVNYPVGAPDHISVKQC


How the values were obtained:
[1] = biological target: T1, human soluble recombinant PSGL1 fused …; assay: ELISA; sPSGL1/Fc (0.25 μg/well) adsorbed to microtiter wells; Tris-buffered saline with 2.5 mM CaCl2, 0.1% Tween-20, 3% BSA; bound sSiglec-5 probed with biotin-labeled polyclonal anti-Siglec-5 antibodies, bound P-selectin with a monoclonal anti-P-selectin antibody; controls with EDTA (5 mM) or polyclonal anti-Siglec-5 antibodies (6 μM) inhibited binding; conditions: both partners purified
[2] = biological target: the molecule itself; assay: SDS-PAGE under non-reduced and reduced conditions; purified sSiglec-5/C4BP, Coomassie-staining; about 525 kDa non-reduced, 75 kDa reduced; heptamer to single chains

Binder | EC50 [1] [nM] | stoichiometry N [2]
Recombinant soluble Siglec-5 fused to human Fc (Fc fusion, UniProt O15389 17-441, looked up, Siglec-5, soluble; also called sSiglec-5/Fc; sSg-5/Fc; source: bought: R&D Systems (cat# 1072-SL), produced in mouse myeloma cell-line NS0) EKPVYELQVQKSVTVQEGLCVLVPCSFSYPWRSWYSSPPLYVYWFRDGEIPYYAEVVATNNPDRRVKPETQGRFRLLGDVQKKNCSLSIGDARMEDTGSYFFRVERGRDVKYSYQQNKLNLEVTALIEKPDIHFLEPLESGRPTRLSCSLPGSCEAGPPLTFSWTGNALSPLDPETTRSSELTLTPRPEDHGTNLTCQMKRQGAQVTTERTVQLNVSYAPQTITIFRNGIALEILQNTSYLPVLEGQALRLLCDAPSNPPAHLSWFQGSPALNATPISNTGILELRRVRSAEEGGFTCRAQHPLGFLQIFLNLSVYSLPQLLGPSCSWEAEGLHCRCSFRARPAPSLCWRLEEKPLEGNSSQGSFKVNSSSAGPWANSSLILHGGLSSDLKVSCKAWNIYGSQSGSVLLLQGRSNLGTGVVPAAL | 49 ± 11 | 
heptameric Siglec-5/C4BP fusion protein (other, UniProt O15389 17-434, looked up, Siglec-5 ectodomain, residues 17-434; also called sSiglec-5/C4BP; sSg-5/C4BP) EKPVYELQVQKSVTVQEGLCVLVPCSFSYPWRSWYSSPPLYVYWFRDGEIPYYAEVVATNNPDRRVKPETQGRFRLLGDVQKKNCSLSIGDARMEDTGSYFFRVERGRDVKYSYQQNKLNLEVTALIEKPDIHFLEPLESGRPTRLSCSLPGSCEAGPPLTFSWTGNALSPLDPETTRSSELTLTPRPEDHGTNLTCQMKRQGAQVTTERTVQLNVSYAPQTITIFRNGIALEILQNTSYLPVLEGQALRLLCDAPSNPPAHLSWFQGSPALNATPISNTGILELRRVRSAEEGGFTCRAQHPLGFLQIFLNLSVYSLPQLLGPSCSWEAEGLHCRCSFRARPAPSLCWRLEEKPLEGNSSQGSFKVNSSSAGPWANSSLILHGGLSSDLKVSCKAWNIYGSQSGSVLLLQGRSNLGTETPEGCEQVLTGKRLMQCLPNPEDVKMALEVYKLSLEIEQLELQRDSARQSTLDKEL | 8 ± 1 | 7
